Measurements as given in patent US20070276124A1.

What was measured:
[1] = biological target: His6-Sep fusion protein from construct BspA-6xHis-Sep (Lactobacillus fermentum BR11); assay: whole cell ELISA for the His6 epitope on L. fermentum cells with BspA-6xHis-Sep against parent BR11 cells
[2] = biological target: His6-Sep fusion protein from construct BspA-6xHis-Sep (Lactobacillus fermentum BR11); assay: whole cell ELISA for the His6 epitope on L. fermentum cells with BspA-6xHis-Sep; parent BR11 cells gave 0.0168±0.0007

fold signal over L. fermentum BR11 parent cells [1]: 1.8 fold
A450nm signal per OD600 nm unit of cells (A450nm per OD600 nm unit of cells) [2]: 0.0302
Substance: anti-His5 monoclonal antibody (Qiagen, Hilden, Germany)
